Series [1] concerns the molecule itself. Put plainly: crystal structure; MamM CTD 20 mg/ml co-crystallised with 3.375 mM CuSO4; 10 mM Tris pH 8.0, 150 mM NaCl, 5 mM β-mercaptoethanol; vapor diffusion, 293 K.
Series [2] concerns the molecule itself. Put plainly: PELDOR (pulsed EPR) spectroscopy; four-pulse PELDOR at 50 K on MTSL-labelled C267S MamM CTD (250 or 500 µM in D2O, 30% glycerol-d8) incubated with 3- or 5-fold excess of Cd2+, Ni2+, Cu2+, Fe2+ or Mn2+; distance between the Cys-275 labels of the two protomers.

Substitutions are numbered along the chain they refer to. Numbers in names are those of the source.

B1: MamM CTD (cytoplasmic C-terminal domain of MamM, residues 215-318) (domain or fragment, UniProt V6F235 215-318, looked up)
chain: EAVQNRIVEAAERVPGVRGVIHLRARYVGQDIWADMIIGVDPENTVEQAHEICEAVQAAVCGKIRRIESLHVSAEAREIGDTTKPSFSDQPLSFDEVMLSKVDN
notes: MamM, cation diffusion facilitator iron transporter of magnetotactic bacteria, UniProt Q6NE57, C-terminal domain, residues 215-318; Homodimer in all crystal forms; also called WT MamM CTD; MamM's cytoplasmic domain
In the case of B1, the binding result in series [1] is reported as “binds”.

B2: spin-labeled C267S MamM CTD (domain or fragment, UniProt V6F235 215-318, looked up)
chain: B1 chain with C53S
modifications: MTSL spin label on Cys-275
notes: MamM, cation diffusion facilitator iron transporter of magnetotactic bacteria, UniProt Q6NE57, C-terminal domain, residues 215-318, with C267S; Only Cys-275 is left for labelling with MTSL; also called C267SSL; MamM CTD C267S
As for B2, in series [2], the binding result is reported as “binds”.

These data come from PMC7864060, “The cation diffusion facilitator protein MamM's cytoplasmic domain exhibits metal-type dependent binding modes and discriminates against Mn^2+” (The Journal of Biological Chemistry, 2020).
